From US8067376B2, “Pharmaceutical compositions for transdermal delivery” (Forhumantech Co., Ltd., priority 2004, dated 2011)
“Also recorded” adds a separate entry of the source. Ends that are not written are not given here.

How the values were obtained:
HeCaT cell line = experiment: Cell proliferation-inhibitory effect by WST-1 assay; format: cell-based; details: 0.2, 1.5, 4.4, 13.3 and 40 μM, after 2 days
Text: In this Example, the cell proliferation-inhibitory effect of PTD-MTX was observed by WST-1 assay (Roche Biochemical) in vitro.
To analyze the cell proliferation-inhibitory effect of PTD-MTX, a HeCaT cell line (obtained from the Department of Dermatology, College of Medicine, Chungnam National University, Korea) was used to analyze cell death. For this purpose, […] were inoculated into DMEM medium (10% FCS, antibiotics (GIBCO)) on a 96-well plate and cultured overnight. To the culture medium, MTX alone, PTD-MTX and PTD-ACA-MTX conjugates prepared in Example 1 were added with concentrations of 0.2, 1.5, 4.4, 13.3 and 40 μM respectively. After 2 days, the inhibition of proliferation of the cells was analyzed by the WST-1 assay.
In the WST-1 assay, tetrazolium salt is present in the respiratory chain of mitochondria and cleaved into a formazan dye by succinate-tetrazolium-reductase having activity only for viable cells, and if the number of viable cells increases, the entire activity of mitochondria dehydrogenase in a sample will increase. Since this increase in enzymatic activity induces an increase in the production of formazan dye, the formazan dye will show a linear correlation with the number of metabolically active cells in medium. The absorbance of the dye solution was measured with an ELISA reader to quantify the formazan dye produced by the metabolically active cells so as to observe cell proliferation ability and cell viability.

DBA/1J mice = experiment: Arthritis animal model (rheumatoid arthritis induced by II-type collagen); format: in vivo, mouse
Procedure: For in vivo verification of the pharmacological effects of the PTD-ACA-MTX conjugate, DBA/1J mice (obtained from Samtako) were injected with e II-type collagen (obtained from Sigma) to induce rheumatoid arthritis. The mice were divided into a group for intraperitoneal (I.P.) injection of the PTD-ACA-MTX conjugate prepared in Example 1, a group for transdermal administration of the PTD-ACA-MTX conjugate prepared in Example 1, and a group for intraperitoneal (I.P.) injection of MTX alone. For the groups for intraperitoneal (I.P.) injection, MTX was injected in a dosage of 0.3 mg/kg for 4 weeks, and for the group for transdermal administration, a cream-type composition consisting of 5 wt %, based on the weight of the composition, of ethanol, 15 wt % of liquid paraffin, 40 wt % of Vaseline, 0.1 wt % of the PTD-ACA-MTX conjugate, 10 wt % of glycerin and 30 wt % of polyethylene glycol was prepared and then applied on rheumatoid arthritis-induced sites four times weekly. After treatment with the drugs, the arthritis index was monitored one time each week, and after 4 weeks, the animals were sacrificed and the IL-4, IL-6, TNF-α and arthritis factor levels in the blood were measured (see FIGS. 7, 8 and 9; results obtained using PTD of SEQ ID NO: 2 are not shown in the drawings). In FIGS. 7, 8 and 9, N: normal mice; CT: mice having rheumatoid arthritis induced by injection of collagen; M1: the group injected intraperitoneally with MTX alone; M2: the group injected intraperitoneally with PTD-ACA-MTX; and M3: the group for which the ointment preparation containing the PTD-ACA-MTX conjugate was administered transdermally.

Sprague Dawley rats = experiment: Toxicity test by single subcutaneous administration to rats; format: in vivo, rat
Procedure: Toxicity by the single subcutaneous administration of PTD-ACA-MTX prepared in Example 1 was examined. Male and female Sprague Dawley rats (Samtako) were divided into an excipient control group administered with sterilized water for injection, and test groups administered with the inventive conjugate in amounts of 5, 50 and 500 mg/kg. Each of the animal groups consisted of 10 animals (five males and five females) and observed for mortality for 2 weeks, general symptoms, bodyweight change, and autopsy findings. All the test methods were performed according to toxicity test standards provided by the Korea Food and Drug Administration, and the test results are as follows.

beagle dogs = experiment: Toxicity test by single subcutaneous administration to beagle dogs; format: in vivo, dog
Procedure: Toxicity caused by single subcutaneous administration of the inventive conjugate was examined. Male and female beagle dogs were administered subcutaneously with the inventive conjugate in each of amounts of 4, 20 and 100 mg/kg. Each of the animal groups consisted of four animals (2 males and 2 females) and observed for mortality for 2 weeks, general symptoms, bodyweight change, and autopsy findings. All the test methods were performed according to toxicity test standards provided by the Korea Food and Drug Administration, and the test results are as follows.

[1] = tested on: New Zealand White rabbits; experiment: Skin irritation test in rabbits; format: in vivo, rabbit; details: healthy and scratch skin
Procedure: The skin irritability of the inventive conjugate was examined. The inventive conjugate was applied to the healthy skin and scratch skin of New Zealand White rabbits, which were then evaluated comparatively with the healthy skin and scratch skin to which the inventive conjugate had not been applied.

[2] = Prior enzyme test of PTD-MTX conjugate versus MTX alone; format: biochemical; details: prior enzyme test results
[3] = 500 mg/kg, male and female animals

Question: Which “cell proliferation-inhibitory effect (rank order)” value (HeCaT cell line) does the source give for “PTD-ACA-MTX (YARVRRRGPRR; also: aminocaproic acid linker, methotrexate conjugate, position not given here)” here?
Answer: Its value is “MTX alone <PTD-MTX<PTD-ACA-MTX”.

Question: What about the “cell proliferation-inhibitory effect (rank order)” value (HeCaT cell line; listed as MTX-ACA-PTD conjugate) of the same molecule?
Answer: The value was “highest inhibitory effect”.

Question: What about the “inflammatory cells which have penetrated inflammatory sites (tissue photographs)” value (DBA/1J mice; after treatment, H&E and M-T staining) of the same molecule?
Answer: Its value is “greatly decreased”.

Question: And the “amount of inflammation-mediating cytokine TNF-α” value (DBA/1J mice; blood, after 4 weeks of treatment)?
Answer: The value was “greatly decreased”.

Question: And the “pharmacological effect in arthritis animal model” value (DBA/1J mice; group M3, transdermal ointment, compared with M2 (I.P. MTX-ACA-PTD) and M1 (I.P. MTX alone))?
Answer: Its value is “substantially the same effect”.

Question: What about the autopsy findings (Sprague Dawley rats; 500 mg/kg, female animals) of the same molecule?
Answer: Its autopsy findings is “splenomegaly was observed”.

Question: What about the “autopsy findings at the administration site” value (Sprague Dawley rats; [3]) of the same molecule?
Answer: Its value is “red fluid retention and incrustation”.

Question: And the general symptoms (Sprague Dawley rats; [3])?
Answer: Its general symptoms is “congestion was observed starting from one day after the administration; also recorded: incrustation was observed starting from 2 days after the administration”.

Question: And the general symptoms (Sprague Dawley rats; 500 mg/kg, male animals)?
Answer: The general symptoms was “systemic edema was observed”.

Question: And the bodyweight change (Sprague Dawley rats; 500 mg/kg, male animals, 3, 7 and 14 days after administration)?
Answer: The bodyweight change was “inhibition of an increase in bodyweight”.

Question: And the “mortality (animals killed by the test substance)” value (Sprague Dawley rats; 5, 50 and 500 mg/kg single s.c., 2 weeks)?
Answer: Its value is “not observed”.

Question: And the general symptoms (Sprague Dawley rats; 4 days to 6 days after administration, group not clearly stated (500 mg/kg context))?
Answer: The general symptoms was “Diarrhea and soft feces were sporadically observed”.

Question: What about the “minimum lethal dose (MLD)” value (Sprague Dawley rats; single subcutaneous administration, rats) of the same molecule?
Answer: The value was “more than 500 mg/kg”.

Question: And the bodyweight change (beagle dogs; 100 mg/kg, male and female animals, 3 days after administration)?
Answer: Its bodyweight change is “temporary inhibition of an increase in bodyweight”.

Question: And the general symptoms (beagle dogs; 100 mg/kg, males, anorexia 2 to 4 days, diarrhea 3 days after administration, listed as inventive conjugate)?
Answer: The general symptoms was “anorexia was observed; also recorded: diarrhea was observed”.

Question: What about the general symptoms (beagle dogs; 100 mg/kg, one male and female, starting from 1 hour after administration) of the same molecule?
Answer: The general symptoms was “reduction in spontaneous motility was observed”.

Question: And the autopsy findings (beagle dogs; 4, 20 and 100 mg/kg single s.c.)?
Answer: The autopsy findings was “abnormal findings were not observed”.

Question: What about the “mortality (animals killed by the test substance)” value (beagle dogs; 4, 20 and 100 mg/kg single s.c., 2 weeks) of the same molecule?
Answer: Its value is “No animal killed by the test substance was observed”.

Question: And the general symptoms (beagle dogs; groups with more than 20 mg/kg, males and females, 1 hour to 6 hours after administration)?
Answer: The general symptoms was “eyelid edema was observed”.

Question: What about the general symptoms (beagle dogs; one male of 20 mg/kg group and one female of 100 mg/kg group) of the same molecule?
Answer: The general symptoms was “edema and a reduction in spontaneous motility were continued up to 2 days after administration”.

Question: And the minimum lethal dose (beagle dogs; single subcutaneous administration, beagle dogs, both males and females)?
Answer: The minimum lethal dose was “over 100 mg/kg”.

Question: And the skin irritability classification [1]?
Answer: Its skin irritability classification is “non-irritating substance”.

Question: And the skin irritation index [1]?
Answer: The skin irritation index was “zero”.

Question: Which “cell proliferation-inhibitory effect (rank order)” value (HeCaT cell line) does the source give for “PTD-MTX (YARVRRRGPRR-NH2; not fully specified (N-terminus); also: methotrexate conjugate)” here?
Answer: Its value is “MTX alone <PTD-MTX<PTD-ACA-MTX”.

Question: And the “effect in enzyme test compared to MTX alone” value [2]?
Answer: The value was “low effects compared to MTX alone”.

Question: Which “cell proliferation-inhibitory effect (rank order)” value (HeCaT cell line) does the source give for CN(Cc1cnc2nc(N)nc(N)c2n1)c1ccc(C(=O)N[C@@H](CCC(=O)O)C(=O)O)cc1 [MTX alone, methotrexate, reference compound] here?
Answer: The value was “followed by the MTX-PTD conjugate and the MTX alone in that order; also recorded: MTX alone <PTD-MTX<PTD-ACA-MTX”.
